Laboratory results published in patent US20220281980A1 (Bristol-Myers Squibb, published 2022).
Changes are numbered by the printed parent chain. Blank lines part the entries; values can stand above or below the binder they belong to.

How the values were obtained:
[1] = molecular target: T1, recombinant soluble human MICA*008 antigen (human, UniProt Q29983 24-307); assay: BLI (Octet) sandwich binning on soluble MICA allele 8, row antibody captured; competitor (second antibody): MICA.2
T1 construct: also called huIMICA-his allele *008; recombinant soluble MICA (allele 8)
T1 chain: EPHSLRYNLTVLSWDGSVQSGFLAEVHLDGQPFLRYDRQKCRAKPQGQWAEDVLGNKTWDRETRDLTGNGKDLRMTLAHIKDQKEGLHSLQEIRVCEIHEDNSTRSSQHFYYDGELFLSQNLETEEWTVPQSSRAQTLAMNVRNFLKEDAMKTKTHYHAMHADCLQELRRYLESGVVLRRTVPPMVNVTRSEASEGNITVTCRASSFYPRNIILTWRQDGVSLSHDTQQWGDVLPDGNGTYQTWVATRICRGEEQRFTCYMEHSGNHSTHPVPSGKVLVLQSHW
Procedure: (§1) The binning experiments were performed on an Octet HTX instrument at 25° C. in HEPES buffered saline (10 mM HEPES pH 7.4, 150 mM NaCl, 0.05% v/v surfactant P20, and 1 mg/mL BSA). Anti-MICA/B antibodies and NKG2D-mFc were captured on anti-Fc tips and remaining capture sites were blocked with an excess of negative control IgG. Recombinant soluble MICA (allele 8) was bound and subsequent binding (“sandwiching”) of anti-MICA/B antibodies was tested.

[2] = molecular target: T2, human MICA*002 expressed on CHO cells (human, UniProt Q29983 24-382); assay: flow cytometry, transfected CHO cells
T2 construct: also called MICA allele 002
T2 chain: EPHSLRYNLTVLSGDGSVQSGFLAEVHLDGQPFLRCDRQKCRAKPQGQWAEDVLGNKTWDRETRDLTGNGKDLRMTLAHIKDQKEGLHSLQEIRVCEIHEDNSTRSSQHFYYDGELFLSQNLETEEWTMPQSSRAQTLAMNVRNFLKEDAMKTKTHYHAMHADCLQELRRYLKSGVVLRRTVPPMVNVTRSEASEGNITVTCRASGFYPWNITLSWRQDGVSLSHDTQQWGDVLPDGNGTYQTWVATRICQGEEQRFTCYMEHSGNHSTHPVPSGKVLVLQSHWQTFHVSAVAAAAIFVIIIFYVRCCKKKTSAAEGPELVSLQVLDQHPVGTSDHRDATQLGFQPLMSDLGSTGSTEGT

[3] = molecular target: T3, human MICB expressed on transduced cells (human, UniProt Q29980 23-382); assay: flow cytometry, transfected CHO cells
T3 construct: also called MICB*005
T3 chain: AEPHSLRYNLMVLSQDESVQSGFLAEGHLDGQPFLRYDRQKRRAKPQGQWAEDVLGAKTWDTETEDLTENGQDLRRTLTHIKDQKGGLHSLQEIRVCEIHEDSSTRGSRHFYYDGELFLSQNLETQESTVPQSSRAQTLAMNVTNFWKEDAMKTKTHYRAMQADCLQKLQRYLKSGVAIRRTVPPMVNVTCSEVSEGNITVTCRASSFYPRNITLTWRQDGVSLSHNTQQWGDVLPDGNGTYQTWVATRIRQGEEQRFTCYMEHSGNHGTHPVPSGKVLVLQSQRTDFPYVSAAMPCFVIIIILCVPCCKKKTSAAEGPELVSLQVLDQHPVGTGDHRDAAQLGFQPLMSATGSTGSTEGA

[4] = molecular target: T4, human MICA*009 expressed on CHO cells (human, UniProt Q29983 24-382); assay: flow cytometry, transfected CHO cells
T4 construct: also called MICA allele 009
T4 chain: T2 chain with G14W, C36Y, M129V, K173E, G175S, G206S, W210R, S215T, D350A

[5] = molecular target: T5, human MICA*004 expressed on CHO cells (human, UniProt Q29983 24-383); assay: flow cytometry, transfected CHO cells
T5 construct: also called MICA allele 004
T5 chain: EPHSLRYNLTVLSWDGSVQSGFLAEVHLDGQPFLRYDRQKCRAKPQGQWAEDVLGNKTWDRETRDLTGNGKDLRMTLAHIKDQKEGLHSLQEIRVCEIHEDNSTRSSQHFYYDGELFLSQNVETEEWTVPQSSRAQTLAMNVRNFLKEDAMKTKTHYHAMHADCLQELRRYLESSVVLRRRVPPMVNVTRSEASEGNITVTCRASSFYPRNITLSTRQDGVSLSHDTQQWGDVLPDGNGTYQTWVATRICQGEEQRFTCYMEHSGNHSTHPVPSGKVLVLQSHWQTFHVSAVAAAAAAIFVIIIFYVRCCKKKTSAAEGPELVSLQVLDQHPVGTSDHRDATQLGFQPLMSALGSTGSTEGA

[6] = molecular target: T1, recombinant soluble human MICA*008 …; assay: SPR (Biacore 3000), antibody captured on Protein G chip, huMICA-his analyte
Procedure: Kinetics and affinity of anti-MICA/B antibodies MICA.2, 19G6, 16A5, and 71C2 towards human MICA alleles (huIMICA-his allele *002, *004, *008, and *009) were also determined on a BIACORE 3000® instrument using the following conditions: [0571] Running Buffer: HES-EP running buffer [0572] Chip: CM5 Protein G Chip Fc1: Blank. Fc2-4: ˜200Rus [0573] Ab: 5 ug/mL, 10 uL @ 10 uL/min [0574] Ag binding: 5 min association, 7 min dissociation @ 25 uL/min, [0575] Regeneration: Glycine 1.7, 10 uL @ 100 uL/min followed by 60s wash by HES-EP

[7] = molecular target: T1, recombinant soluble human MICA*008 …; assay: BLI (Octet) sandwich binning on soluble MICA allele 8, row antibody captured; competitor (second antibody): MICA.36
Procedure: as §1

B2: 24G11 (antibody, V domains shown)
VH: EVQLVQSGAEVKKPGESLKISCKGSGYSFTNYWIGWVRQMPGKGLEWLGIIHPGDSYTRYSPSFQGQVTISADKSISTAYLQWSSLKASDTAIYYCAREGIAATPFDYWGQGTLVTVSS
VL: EIVLTQSPATLSLSPGERATLSCRASQSVSSYLAWFQQKPGQAPRLLIYDASNRATGIPARFSGSGSGTDFTLTISSLEPEDFAVYYCQQRSNWPPTFGQGTKVEIK
notes: also called MICA.54; 24G11 (MICA.54)
simultaneous binding (0 = no, 1 = yes) [1]: 1
EC50 [2]: 1060 nM
EC50 [3]: 262 nM
EC50 [4]: 497 nM
EC50 [5]: 518 nM
simultaneous binding (0 = no, 1 = yes) [7]: 0

B3: 71C2 (antibody, V domains shown)
VH: EVQLVESGGGLVQPGRSLRLSCAASGFTFNNYAMHWVRQAPGKGLEWVSGITWNSDSIGYADSVKGRFTISRDNAKNSLYLQMNSLRAEDTALYYCAKDSVLLWFGGMDVWGQGTTVTVSS
VL: not shown
notes: Hybridoma antibody
EC50 [2]: 264 nM
EC50 [3]: 9.81 nM
EC50 [4]: 10.2 nM
EC50 [5]: 26.2 nM
Kd [6]: 39.9 nM

B5: 19G6 (antibody, V domains shown)
VH: QVQLVESGGGVVQPGRSLRLSCAASGFTFSNYAMHWVRQAPGEGLEWVALIWYDGSNKFYGDSVKGRFTISRDNSKNTLYLQMNSLSAEDTAVYYCAREGSGHYWGQGTLVTVSS
VL: AIQLTQSPSSLSASVGDRVTITCRASQGISSALAWYQQKPGKVPKSLIYDASSLESGVPSRFSGSGSGTDFTLTISSLQPEDFATYYCQQFNSYPITFGQGTRLEIK
notes: Hybridoma antibody from human IgG transgenic mice, parent of MICA.36; also called 19G6 mAb; hybridoma 19G6
EC50 [2]: 152 nM
EC50 [3]: 1.83 nM
EC50 [4]: 8.21 nM
EC50 [5]: 11.4 nM
Kd [6]: 5.23 nM

Continued, values first:

simultaneous binding (0 = no, 1 = yes) [1]: 0
EC50 [2]: 5.37 nM
EC50 [3]: 6 nM
EC50 [4]: 1.56 nM
EC50 [5]: 2.94 nM
Kd [6]: 40.5 nM
simultaneous binding (0 = no, 1 = yes) [7]: 1
B1: MICA.2 (antibody, human IgG1, kappa, V domains shown)
VH: EVQLVESGGGLVQPGGSLRLSCAASGFTFSTYSMNWVRQAPGKGLEWVSYISYRSRTIYYADSVKGRFTISRDNARNSLYLQMNSLRDEDTAVYYCARWGYGSGGFDYWGQGTLVTVSS
VL: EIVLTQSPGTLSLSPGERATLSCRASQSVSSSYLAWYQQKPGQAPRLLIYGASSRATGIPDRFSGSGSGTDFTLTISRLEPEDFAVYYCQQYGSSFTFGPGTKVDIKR
notes: 3F5 variable regions on human IgG1f and human kappa constant regions, made in CHO-S cells; also called 3F5; recombinant antibody of 3F5

simultaneous binding (0 = no, 1 = yes) [1]: 1
simultaneous binding (0 = no, 1 = yes) [7]: 0
B4: MICA.36 (antibody, V domains shown)
VH: B5 VH
VL: B5 VL
notes: it says that the name implies no specific constant region; Radioiodinated in the Scatchard assay; also called MICA.36 antibody
